According to paper PMC12819146:

Experiments:
[1] = molecular target: PtuA of retron Ec78, wild type, His-Sumo tagged (E. coli ECONIH5); test: SEC
[2] = molecular target: PtuA-Q361L of retron Ec78, His-Sumo tagged, co-expressed with PtuB without the retron (E. coli ECONIH5); test: cryo-EM structure
[3] = molecular target: PtuA-E396Q of retron Ec78 (ATPase-deficient mutant), as expressed from the Ec78 operon (E. coli ECONIH5); test: cryo-EM structure

PtuA of retron Ec78, wild type, His-Sumo tagged (enzyme)
stoichiometry N [1]: 4

PtuA-Q361L of retron Ec78, His-Sumo tagged, co-expressed with PtuB without the retron (enzyme)
stoichiometry N [2]: 4

Reverse transcriptase of retron Ec78 (enzyme)
stoichiometry N (RT for four PtuA subunits) [3]: 2 | stoichiometry N (RT–ncRNA–msDNA for four PtuA subunits) [3]: 1

PtuB of retron Ec78 with C-terminal His-tag, as expressed from the Ec78 operon (enzyme)
stoichiometry N (PtuB subunits for four PtuA subunits) [3]: 2

PtuB of retron Ec78, co-expressed with His-Sumo-PtuA from pRSF-Duet (enzyme)
stoichiometry N (PtuB subunits for four PtuA subunits) [2]: 2

PtuA-E396Q of retron Ec78 (ATPase-deficient mutant), as expressed from the Ec78 operon (enzyme)
stoichiometry N [3]: 4
